Data taken from doi:10.1101/2025.04.14.648764 (bioRxiv, 2025).

B1: AGT WT (enzyme, human)
chain: MASHKLLVTPPKALLKPLSIPNQLLLGPGPSNLPPRIMAAGGLQMIGSMSKDMYQIMDEIKEGIQYVFQTRNPLTLVISGSGHCALEAALVNVLEPGDSFLVGANGIWGQRAVDIGERIGARVHPMTKDPGGHYTLQEVEEGLAQHKPVLLFLTHGESSTGVLQPLDGFGELCHRYKCLLLVDSVASLGGTPLYMDRQGIDILYSGSQKALNAPPGTSLISFSDKAKKKMYSRKTKPFSFYLDIKWLANFWGCDDQPRMYHHTIPVISLYSLRESLALIAEQGLENSWRQHREAAAYLHGRLQALGLQLFVKDPALRLPTVTTVAVPAGYDWRDIVSYVIDHFDIEIMGGLGPSTGKVLRIGLLGCNATRENVDRVTEALRAALQHCPKKKL
B2: AGT LM p.S81D (enzyme, human)
chain: MASHKLLVTPLKALLKPLSIPNQLLLGPGPSNLPPRIMAAGGLQMIGSMSKDMYQIMDEIKEGIQYVFQTRNPLTLVISGDGHCALEAALVNVLEPGDSFLVGANGIWGQRAVDIGERIGARVHPMTKDPGGHYTLQEVEEGLAQHKPVLLFLTHGESSTGVLQPLDGFGELCHRYKCLLLVDSVASLGGTPLYMDRQGIDILYSGSQKALNAPPGTSLISFSDKAKKKMYSRKTKPFSFYLDIKWLANFWGCDDQPRMYHHTIPVISLYSLRESLALIAEQGLENSWRQHREAAAYLHGRLQALGLQLFVKDPALRLPTVTTVAVPAGYDWRDIVSYVMDHFDIEIMGGLGPSTGKVLRIGLLGCNATRENVDRVTEALRAALQHCPKKKL
B3: AGT LM-p.G170R p.S81D (enzyme, human)
chain: MASHKLLVTPLKALLKPLSIPNQLLLGPGPSNLPPRIMAAGGLQMIGSMSKDMYQIMDEIKEGIQYVFQTRNPLTLVISGDGHCALEAALVNVLEPGDSFLVGANGIWGQRAVDIGERIGARVHPMTKDPGGHYTLQEVEEGLAQHKPVLLFLTHGESSTGVLQPLDGFRELCHRYKCLLLVDSVASLGGTPLYMDRQGIDILYSGSQKALNAPPGTSLISFSDKAKKKMYSRKTKPFSFYLDIKWLANFWGCDDQPRMYHHTIPVISLYSLRESLALIAEQGLENSWRQHREAAAYLHGRLQALGLQLFVKDPALRLPTVTTVAVPAGYDWRDIVSYVMDHFDIEIMGGLGPSTGKVLRIGLLGCNATRENVDRVTEALRAALQHCPKKKL
B4: AGT LM-p.I244T p.S81D (enzyme, human)
chain: MASHKLLVTPLKALLKPLSIPNQLLLGPGPSNLPPRIMAAGGLQMIGSMSKDMYQIMDEIKEGIQYVFQTRNPLTLVISGDGHCALEAALVNVLEPGDSFLVGANGIWGQRAVDIGERIGARVHPMTKDPGGHYTLQEVEEGLAQHKPVLLFLTHGESSTGVLQPLDGFGELCHRYKCLLLVDSVASLGGTPLYMDRQGIDILYSGSQKALNAPPGTSLISFSDKAKKKMYSRKTKPFSFYLDTKWLANFWGCDDQPRMYHHTIPVISLYSLRESLALIAEQGLENSWRQHREAAAYLHGRLQALGLQLFVKDPALRLPTVTTVAVPAGYDWRDIVSYVMDHFDIEIMGGLGPSTGKVLRIGLLGCNATRENVDRVTEALRAALQHCPKKKL
B5: AGT LM (enzyme, human)
chain: MASHKLLVTPLKALLKPLSIPNQLLLGPGPSNLPPRIMAAGGLQMIGSMSKDMYQIMDEIKEGIQYVFQTRNPLTLVISGSGHCALEAALVNVLEPGDSFLVGANGIWGQRAVDIGERIGARVHPMTKDPGGHYTLQEVEEGLAQHKPVLLFLTHGESSTGVLQPLDGFGELCHRYKCLLLVDSVASLGGTPLYMDRQGIDILYSGSQKALNAPPGTSLISFSDKAKKKMYSRKTKPFSFYLDIKWLANFWGCDDQPRMYHHTIPVISLYSLRESLALIAEQGLENSWRQHREAAAYLHGRLQALGLQLFVKDPALRLPTVTTVAVPAGYDWRDIVSYVMDHFDIEIMGGLGPSTGKVLRIGLLGCNATRENVDRVTEALRAALQHCPKKKL
B6: AGT LM-p.G170R (enzyme, human)
chain: MASHKLLVTPLKALLKPLSIPNQLLLGPGPSNLPPRIMAAGGLQMIGSMSKDMYQIMDEIKEGIQYVFQTRNPLTLVISGSGHCALEAALVNVLEPGDSFLVGANGIWGQRAVDIGERIGARVHPMTKDPGGHYTLQEVEEGLAQHKPVLLFLTHGESSTGVLQPLDGFRELCHRYKCLLLVDSVASLGGTPLYMDRQGIDILYSGSQKALNAPPGTSLISFSDKAKKKMYSRKTKPFSFYLDIKWLANFWGCDDQPRMYHHTIPVISLYSLRESLALIAEQGLENSWRQHREAAAYLHGRLQALGLQLFVKDPALRLPTVTTVAVPAGYDWRDIVSYVMDHFDIEIMGGLGPSTGKVLRIGLLGCNATRENVDRVTEALRAALQHCPKKKL
B7: AGT LM-p.I244T (enzyme, human)
chain: MASHKLLVTPLKALLKPLSIPNQLLLGPGPSNLPPRIMAAGGLQMIGSMSKDMYQIMDEIKEGIQYVFQTRNPLTLVISGSGHCALEAALVNVLEPGDSFLVGANGIWGQRAVDIGERIGARVHPMTKDPGGHYTLQEVEEGLAQHKPVLLFLTHGESSTGVLQPLDGFGELCHRYKCLLLVDSVASLGGTPLYMDRQGIDILYSGSQKALNAPPGTSLISFSDKAKKKMYSRKTKPFSFYLDTKWLANFWGCDDQPRMYHHTIPVISLYSLRESLALIAEQGLENSWRQHREAAAYLHGRLQALGLQLFVKDPALRLPTVTTVAVPAGYDWRDIVSYVMDHFDIEIMGGLGPSTGKVLRIGLLGCNATRENVDRVTEALRAALQHCPKKKL
B8: AGT WT p.S81A (enzyme, human)
chain: MASHKLLVTPPKALLKPLSIPNQLLLGPGPSNLPPRIMAAGGLQMIGSMSKDMYQIMDEIKEGIQYVFQTRNPLTLVISGAGHCALEAALVNVLEPGDSFLVGANGIWGQRAVDIGERIGARVHPMTKDPGGHYTLQEVEEGLAQHKPVLLFLTHGESSTGVLQPLDGFGELCHRYKCLLLVDSVASLGGTPLYMDRQGIDILYSGSQKALNAPPGTSLISFSDKAKKKMYSRKTKPFSFYLDIKWLANFWGCDDQPRMYHHTIPVISLYSLRESLALIAEQGLENSWRQHREAAAYLHGRLQALGLQLFVKDPALRLPTVTTVAVPAGYDWRDIVSYVIDHFDIEIMGGLGPSTGKVLRIGLLGCNATRENVDRVTEALRAALQHCPKKKL
B9: AGT LM p.S81A (enzyme, human)
chain: MASHKLLVTPLKALLKPLSIPNQLLLGPGPSNLPPRIMAAGGLQMIGSMSKDMYQIMDEIKEGIQYVFQTRNPLTLVISGAGHCALEAALVNVLEPGDSFLVGANGIWGQRAVDIGERIGARVHPMTKDPGGHYTLQEVEEGLAQHKPVLLFLTHGESSTGVLQPLDGFGELCHRYKCLLLVDSVASLGGTPLYMDRQGIDILYSGSQKALNAPPGTSLISFSDKAKKKMYSRKTKPFSFYLDIKWLANFWGCDDQPRMYHHTIPVISLYSLRESLALIAEQGLENSWRQHREAAAYLHGRLQALGLQLFVKDPALRLPTVTTVAVPAGYDWRDIVSYVMDHFDIEIMGGLGPSTGKVLRIGLLGCNATRENVDRVTEALRAALQHCPKKKL
B10: AGT LM-p.G170R p.S81A (enzyme, human)
chain: MASHKLLVTPLKALLKPLSIPNQLLLGPGPSNLPPRIMAAGGLQMIGSMSKDMYQIMDEIKEGIQYVFQTRNPLTLVISGAGHCALEAALVNVLEPGDSFLVGANGIWGQRAVDIGERIGARVHPMTKDPGGHYTLQEVEEGLAQHKPVLLFLTHGESSTGVLQPLDGFRELCHRYKCLLLVDSVASLGGTPLYMDRQGIDILYSGSQKALNAPPGTSLISFSDKAKKKMYSRKTKPFSFYLDIKWLANFWGCDDQPRMYHHTIPVISLYSLRESLALIAEQGLENSWRQHREAAAYLHGRLQALGLQLFVKDPALRLPTVTTVAVPAGYDWRDIVSYVMDHFDIEIMGGLGPSTGKVLRIGLLGCNATRENVDRVTEALRAALQHCPKKKL
B11: AGT LM-p.I244T p.S81A (enzyme, human)
chain: MASHKLLVTPLKALLKPLSIPNQLLLGPGPSNLPPRIMAAGGLQMIGSMSKDMYQIMDEIKEGIQYVFQTRNPLTLVISGAGHCALEAALVNVLEPGDSFLVGANGIWGQRAVDIGERIGARVHPMTKDPGGHYTLQEVEEGLAQHKPVLLFLTHGESSTGVLQPLDGFGELCHRYKCLLLVDSVASLGGTPLYMDRQGIDILYSGSQKALNAPPGTSLISFSDKAKKKMYSRKTKPFSFYLDTKWLANFWGCDDQPRMYHHTIPVISLYSLRESLALIAEQGLENSWRQHREAAAYLHGRLQALGLQLFVKDPALRLPTVTTVAVPAGYDWRDIVSYVMDHFDIEIMGGLGPSTGKVLRIGLLGCNATRENVDRVTEALRAALQHCPKKKL
B12: AGT WT p.S81D (enzyme, human)
chain: MASHKLLVTPPKALLKPLSIPNQLLLGPGPSNLPPRIMAAGGLQMIGSMSKDMYQIMDEIKEGIQYVFQTRNPLTLVISGDGHCALEAALVNVLEPGDSFLVGANGIWGQRAVDIGERIGARVHPMTKDPGGHYTLQEVEEGLAQHKPVLLFLTHGESSTGVLQPLDGFGELCHRYKCLLLVDSVASLGGTPLYMDRQGIDILYSGSQKALNAPPGTSLISFSDKAKKKMYSRKTKPFSFYLDIKWLANFWGCDDQPRMYHHTIPVISLYSLRESLALIAEQGLENSWRQHREAAAYLHGRLQALGLQLFVKDPALRLPTVTTVAVPAGYDWRDIVSYVIDHFDIEIMGGLGPSTGKVLRIGLLGCNATRENVDRVTEALRAALQHCPKKKL

Target: the molecule itself
Assay: dynamic light scattering

| Protein | stoichiometry N |
| --- | --- |
| B1 | 2 |
| B2 | 2 |
| B3 | 2 |
| B4 | 2 |
| B5 | 2 |
| B6 | 2 |
| B7 | 2 |
| B8 | 2 |
| B9 | 2 |
| B10 | 2 |
| B11 | 2 |
| B12 | 2 |
